Source: the supplement of paper PMC5998384

Experiments:
HeLa Kyoto [1] = assay: thermal stability score vs G1/S (z-score of summed log2 fold changes over temperatures); higher = more thermally stable than in G1/S
HeLa Kyoto [2] = assay: solubility change mitosis vs G1/S (difference of NP-40 vs SDS log2 ratios) (log2 ratio difference); higher = more soluble in mitosis
HeLa Kyoto [3] = assay: solubility in G1/S (NP-40 vs SDS abundance) (log2 ratio); higher = more soluble; details: cell cycle stage: G1/S
[4] = cell cycle stage: early G1 (4.5 h after nocodazole release)
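For solubility change mitosis vs G1/S (difference of NP-40 vs SDS log2 ratios) in this document: synchronized HeLa Kyoto cells (double thymidine block for G1/S, nocodazole release for mitosis), protein amounts in NP-40 versus SDS lysates quantified by mass spectrometry, three biological replicates.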
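For solubility in G1/S (NP-40 vs SDS abundance) in this document: HeLa Kyoto cells arrested at G1/S by double thymidine block, proteins quantified by TMT10plex mass spectrometry in mild NP-40 versus SDS extracts, three biological replicates.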
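For thermal stability score vs G1/S (z-score of summed log2 fold changes over temperatures) in this document: synchronized HeLa Kyoto cells, proteins quantified by TMT10plex mass spectrometry, three biological replicates, mitosis taken 0.5 h after nocodazole release, G1/S directly after double thymidine block.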

Chain of BMS1 (chain, as listed by the source): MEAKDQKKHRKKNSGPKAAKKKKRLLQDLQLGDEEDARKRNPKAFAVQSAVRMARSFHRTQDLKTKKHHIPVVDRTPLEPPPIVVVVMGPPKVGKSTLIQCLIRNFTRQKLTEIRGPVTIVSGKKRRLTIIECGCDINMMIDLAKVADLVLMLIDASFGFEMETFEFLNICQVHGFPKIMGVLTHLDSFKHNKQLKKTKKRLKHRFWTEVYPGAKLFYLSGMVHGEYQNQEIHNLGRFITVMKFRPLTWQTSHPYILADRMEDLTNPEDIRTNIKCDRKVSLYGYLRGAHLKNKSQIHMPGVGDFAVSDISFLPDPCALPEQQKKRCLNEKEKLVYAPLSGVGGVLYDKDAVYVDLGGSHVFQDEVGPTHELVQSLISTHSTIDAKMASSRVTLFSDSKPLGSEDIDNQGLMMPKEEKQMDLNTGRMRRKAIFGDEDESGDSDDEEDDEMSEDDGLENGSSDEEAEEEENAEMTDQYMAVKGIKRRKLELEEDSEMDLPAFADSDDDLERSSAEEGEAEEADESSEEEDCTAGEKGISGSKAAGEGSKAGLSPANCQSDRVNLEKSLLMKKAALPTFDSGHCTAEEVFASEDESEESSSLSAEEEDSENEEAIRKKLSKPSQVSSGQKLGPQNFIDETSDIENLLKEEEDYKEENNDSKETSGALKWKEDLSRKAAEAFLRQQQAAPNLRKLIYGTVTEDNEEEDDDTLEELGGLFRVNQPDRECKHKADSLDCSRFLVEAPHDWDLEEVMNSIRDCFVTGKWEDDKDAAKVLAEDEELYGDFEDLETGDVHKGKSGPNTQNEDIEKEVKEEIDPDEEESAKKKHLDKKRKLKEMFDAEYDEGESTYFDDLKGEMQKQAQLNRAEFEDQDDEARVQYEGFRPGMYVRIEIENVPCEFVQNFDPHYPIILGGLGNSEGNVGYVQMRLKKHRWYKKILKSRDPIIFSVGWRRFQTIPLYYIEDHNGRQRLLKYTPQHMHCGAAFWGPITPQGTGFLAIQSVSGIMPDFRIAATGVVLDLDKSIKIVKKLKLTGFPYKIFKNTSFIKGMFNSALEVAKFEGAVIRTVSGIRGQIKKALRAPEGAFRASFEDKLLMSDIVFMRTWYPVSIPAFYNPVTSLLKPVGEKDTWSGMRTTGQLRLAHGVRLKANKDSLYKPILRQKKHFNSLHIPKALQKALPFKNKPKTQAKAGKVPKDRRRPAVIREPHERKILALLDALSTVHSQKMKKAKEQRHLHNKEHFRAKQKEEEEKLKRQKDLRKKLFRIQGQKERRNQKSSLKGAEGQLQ

Substance	thermal stability score (HeLa Kyoto [1]; [4])	thermal stability score (HeLa Kyoto [1]; cell cycle stage: mitosis)	solubility change mitosis (log2) (HeLa Kyoto [2])	solubility in G1/S (log2) (HeLa Kyoto [3])
BMS1	-1.95	-3.51	0.919	-2.43
MTKLAQWLWGLAILGSTWVALTTGALGLELPLSCQEVLWPLPAYLLVSAGCYALGTVGYRVATFHDCEDAARELQSQIQEARADLARRGLRF [DPM3]	-3.28	-4.14	-0.214	-0.196
MAELDQLPDESSSAKALVSLKEGSLSNTWNEKYSSLQKTPVWKGRNTSSAVEMPFRNSKRSRLFSDEDDRQINTRSPKRNQRVAMVPQKFTATMSTPDKKASQKIGFRLRNLLKLPKAHKWCIYEWFYSNIDKPLFEGDNDFCVCLKESFPNLKTRKLTRVEWGKIRRLMGKPRRCSSAFFEEERSALKQKRQKIRLLQQRKVADVSQFKDLPDEIPLPLVIGTKVTARLRGVHDGLFTGQIDAVDTLNATYRVTFDRTGLGTHTIPDYEVLSNEPHETMPIAAFGQKQRPSRFFMTPPRLHYTPPLQSPIIDNDPLLGQSPWRSKISGSDTETLGGFPVEFLIQVTRLSKILMIKKEHIKKLREMNTEAEKLKSYSMPISIEFQRRYATIVLELEQLNKDLNKVLHKVQQYCYELAPDQGLQPADQPTDMRRRCEEEAQEIVRHANSSTGQPCVENENLTDLISRLTAILLQIKCLAEGGDLNSFEFKSLTDSLNDIKSTIDASNISCFQNNVEIHVAHIQSGLSQMGNLHAFAANNTNRD [LIN9]	2.27	3.4	0.143	0.183
KIAA1671	-0.863	-1.71	1.05	-1.28
MEDPSEPDRLASADGGSPEEEEDGEREPLLPRIAWAHPRRGAPGSAVRLLDAAGEEGEAGDEELPLPPGDVGVSRSSSAELDRSRPAVSVTIGTSEMNAFLDDPEFADIMLRAEQAIEVGIFPERISQGSSGSYFVKDPKRKIIGVFKPKSEEPYGQLNPKWTKYVHKVCCPCCFGRGCLIPNQGYLSEAGAYLVDNKLHLSIVPKTKVVWLVSETFNYNAIDRAKSRGKKYALEKVPKVGRKFHRIGLPPKIGSFQLFVEGYKEAEYWLRKFEADPLPENIRKQFQSQFERLVILDYIIRNTDRGNDNWLVRYEKQKCEKEIDHKESKWIDDEEFLIKIAAIDNGLAFPFKHPDEWRAYPFHWAWLPQAKVPFSEEIRNLILPYISDMNFVQDLCEDLYELFKTDKGFDKATFESQMSVMRGQILNLTQALRDGKSPFQLVQIPCVIVERSQGGSQGRIVHLSNSFTQTVNCRKPFFSSW [PI4K2B]	0.385	0.874	-0.206	0.198
MEVRKLSISWQFLIVLVLILQILSALDFDPYRVLGVSRTASQADIKKAYKKLAREWHPDKNKDPGAEDKFIQISKAYEILSNEEKRSNYDQYGDAGENQGYQKQQQQREYRFRHFHENFYFDESFFHFPFNSERRDSIDEKYLLHFSHYVNEVVPDSFKKPYLIKITSDWCFSCIHIEPVWKEVIQELEELGVGIGVVHAGYERRLAHHLGAHSTPSILGIINGKISFFHNAVVRENLRQFVESLLPGNLVEKVTNKNYVRFLSGWQQENKPHVLLFDQTPIVPLLYKLTAFAYKDYLSFGYVYVGLRGTEEMTRRYNINIYAPTLLVFKEHINRPADVIQARGMKKQIIDDFITRNKYLLAARLTSQKLFHELCPVKRSHRQRKYCVVLLTAETTKLSKPFEAFLSFALANTQDTVRFVHVYSNRQQEFADTLLPDSEAFQGKSAVSILERRNTAGRVVYKTLEDPWIGSESDKFILLGYLDQLRKDPALLSSEAVLPDLTDELAPVFLLRWFYSASDYISDCWDSIFHNNWREMMPLLSLIFSALFILFGTVIVQAFSDSNDERESSPPEKEEAQEKTGKTEPSFTKENSSKIPKKGFVEVTELTDVTYTSNLVRLRPGHMNVVLILSNSTKTSLLQKFALEVYTFTGSSCLHFSFLSLDKHREWLEYLLEFAQDAAPIPNQYDKHFMERDYTGYVLALNGHKKYFCLFKPQKTVEEEEAIGSCSDVDSSLYLGESRGKPSCGLGSRPIKGKLSKLSLWMERLLEGSLQRFYIPSWPELD [DNAJC16]	-0.236	-0.485	1.48e-05	-0.398
MVQKYQSPVRVYKYPFELIMAAYERRFPTCPLIPMFVGSDTVNEFKSEDGAIHVIERRCKLDVDAPRLLKKIAGVDYVYFVQKNSLNSRERTLHIEAYNETFSNRVIINEHCCYTVHPENEDWTCFEQSASLDIKSFFGFESTVEKIAMKQYTSNIKKGKEIIEYYLRQLEEEGITFVPRWSPPSITTSSETSSSSSKKQAASMAVVIPEAALKEGLSGDALSSPSAPEPVVGTPDDKLDADYIKRYLGDLTPLQESCLIRLRQWLQETHKGKIPKDEHILRFLRARDFNIDKAREIMCQSLTWRKQHQVDYILETWTPPQVLQDYYAGGWHHHDKDGRPLYVLRLGQMDTKGLVRALGEEALLRYVLSINEEGLRRCEENTKVFGRPISSWTCLVDLEGLNMRHLWRPGVKALLRIIEVVEANYPETLGRLLILRAPRVFPVLWTLVSPFIDDNTRRKFLIYAGNDYQGPGGLLDYIDKEIIPDFLSGECMCEVPEGGLVPKSLYRTAEELENEDLKLWTETIYQSASVFKGAPHEILIQIVDASSVITWDFDVCKGDIVFNIYHSKRSPQPPKKDSLGAHSITSPGGNNVQLIDKVWQLGRDYSMVESPLICKEGESVQGSHVTRWPGFYILQWKFHSMPACAASSLPRVDDVLASLQVSSHKCKVMYYTEVIGSEDFRGSMTSLESSHSGFSQLSAATTSSSQSHSSSMISR [SEC14L1]	-0.528	0.106	-0.126	-0.0916
